Target: Hen egg white lysozyme (HEL) (UniProt P00698)
Test: isothermal titration calorimetry
Conditions: pH 8.0, 25.0 °C, no added salt (10 mM buffer only), 10 mM Tris

Sequence of UniProt P00698 (P00698 whole entry): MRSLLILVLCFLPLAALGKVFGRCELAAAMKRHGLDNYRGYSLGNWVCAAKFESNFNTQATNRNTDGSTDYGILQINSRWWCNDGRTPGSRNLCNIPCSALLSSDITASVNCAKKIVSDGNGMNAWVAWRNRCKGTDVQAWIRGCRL

HyHEL-10 (HH10) monoclonal antibody, whole IgG1
ΔH: -20.5 kcal/mol
